# According to patent publication US20070099830:
# Assays:
# [1] = target: bovine recombinant glutamate dehydrogenase, P00366
# Sequence of bovine recombinant glutamate dehydrogenase, P00366 (P00366 58-558): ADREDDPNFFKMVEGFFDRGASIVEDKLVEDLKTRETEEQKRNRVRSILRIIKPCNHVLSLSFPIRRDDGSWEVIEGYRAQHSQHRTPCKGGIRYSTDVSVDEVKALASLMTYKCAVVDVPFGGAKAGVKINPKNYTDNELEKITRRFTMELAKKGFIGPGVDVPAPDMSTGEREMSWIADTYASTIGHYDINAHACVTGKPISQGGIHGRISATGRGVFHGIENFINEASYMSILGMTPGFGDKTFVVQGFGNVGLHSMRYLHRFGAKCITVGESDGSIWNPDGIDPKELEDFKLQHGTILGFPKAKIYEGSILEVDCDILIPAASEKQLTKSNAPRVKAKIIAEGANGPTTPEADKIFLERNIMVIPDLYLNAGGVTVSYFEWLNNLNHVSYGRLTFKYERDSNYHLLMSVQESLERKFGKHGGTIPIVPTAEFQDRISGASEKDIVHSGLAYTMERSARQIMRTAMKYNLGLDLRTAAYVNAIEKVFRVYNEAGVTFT
protein,measurement,setting,value
human Sirt4 with a C-terminal FLAG (protein) IGLFVPASPPLDPEKVKELQRFITLSKRLLVMTGAGISTESGIPDYRSEKVGLYARTDRRPIQHGDFVRSAPIRQRYWARNFVGWPQFSSHQPNPAHWALSTWEKLGKLYWLVTQNVDALHTKAGSRRLTELHGCMDRVLCLDCGEQTPRGVLQERFQVLNPTWSAEAHGLAPDGDVFLSEEQVRSFQVPTCVQCGGHLKPDVVFFGDTVNPDKVDFVHKRVKEADSLLVVGSSLQVYSGYRFILTAWEKKLPIAILNIGPTRSDDLACLKLNSRCGELLPLIDPC,mass spectroscopy of histone 2A after incubation with Sirt4 and NAD,histone 2A protein,Sirt4 transferred an approximately 500 Dalton moiety to Histone 2A
same,"glutamate dehydrogenase activity (disappearance of NADH, A340) after one hour with Sirt4 and NAD",[1],"Sirt4, but not the buffer control, significantly reduced the enzymatic activity of glutamate dehydrogenase"
